Assay [1] deals with human macrophage migration inhibitory factor (MIF) (human) (UniProt P14174). In words: cell-based or functional assay.
In assay [2] the target is CD80 (UniProt P33681). Briefly: comparator antibody, sub-head 'Kd'; method and antigen not stated.
Assay [3] has as its target CD23 (UniProt P06734). The description is as above.

Sequence of CD23 (P06734 48-321 limits assumed): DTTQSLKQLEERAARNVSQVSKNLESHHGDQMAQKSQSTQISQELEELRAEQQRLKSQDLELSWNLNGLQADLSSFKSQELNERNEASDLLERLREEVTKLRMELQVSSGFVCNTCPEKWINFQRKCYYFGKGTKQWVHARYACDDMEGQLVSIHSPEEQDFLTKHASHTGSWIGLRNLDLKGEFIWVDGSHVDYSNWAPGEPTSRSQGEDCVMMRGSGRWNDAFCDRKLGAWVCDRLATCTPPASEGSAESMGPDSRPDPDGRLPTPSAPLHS
Sequence of human macrophage migration inhibitory factor (MIF) (human) (P14174 2-115 limits assumed): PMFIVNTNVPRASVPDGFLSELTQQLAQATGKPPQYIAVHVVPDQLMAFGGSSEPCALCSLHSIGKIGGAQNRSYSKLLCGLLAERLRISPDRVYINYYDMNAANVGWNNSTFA
Sequence of CD80 (P33681 35-242 limits assumed): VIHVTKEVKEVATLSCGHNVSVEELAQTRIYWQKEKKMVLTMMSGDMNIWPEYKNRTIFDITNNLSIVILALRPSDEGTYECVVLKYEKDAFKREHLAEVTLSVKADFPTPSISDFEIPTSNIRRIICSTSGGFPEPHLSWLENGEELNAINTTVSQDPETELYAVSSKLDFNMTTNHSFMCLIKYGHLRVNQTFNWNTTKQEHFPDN

Take 2B8 (murine anti-CD20 Mab) (antibody): the % MIF PPT Activity in assay [1] was 105%.
In general, Kd refers to the equilibrium constant for the complex coming apart. Read a high Kd as a looser complex. Substance IDEC-114 (anti-CD80 mab) (antibody) yielded a Kd in assay [2] of 2.2 nM.
With IDEC-152 (anti-CD23 mab) (antibody), the Kd in assay [3] stood at 1.2 nM.

(Values after US7294753.)
